Where no end group is shown, it is not given here. [ ]: non-standard residue; d: D form. pS = N[C@@H](COP(=O)(O)O)C(=O)O
B1: GLIEWLENTV (peptide)
peptide: GLIEWLENTV
B2: PVCPPGGIQEV (peptide)
peptide: PVCPPGGIQEV
B3: RIMEGIPTV (peptide)
peptide: RIMEGIPTV
B4: SLSDIQPCL (peptide)
peptide: SLSDIQPCL
B5: VLFSSPPVI (peptide)
peptide: VLFSSPPVI
B6: KILEJLFVJL (peptide)
peptide: KILE[pS]LFV[pS]L
B7: ALAKLLPLL (peptide)
peptide: ALAKLLPLL
B8: ALMDEINFMKM (peptide)
peptide: ALMDEINFMKM
B9: SLGNFKDDLL (peptide)
peptide: SLGNFKDDLL
B10: AQLNLIWQL (peptide)
peptide: AQLNLIWQL
B11: KILEMDDPRA (peptide)
peptide: KILEMDDPRA
B12: KLPEPCPSTV (peptide)
peptide: KLPEPCPSTV
B13: ALWGFFPVLL (peptide)
peptide: ALWGFFPVLL
B14: SIWPALTQV (peptide)
peptide: SIWPALTQV
B15: SLCPPGGIQEV (peptide)
peptide: SLCPPGGIQEV
B16: ILDINDNPPV (peptide)
peptide: ILDINDNPPV
B17: VLDINDNPPV (peptide)
peptide: VLDINDNPPV
B18: FLIPSIIFA (peptide)
peptide: FLIPSIIFA
B19: YLLDYPNNL (peptide)
peptide: YLLDYPNNL
B20: TLLSEIAEL (peptide)
peptide: TLLSEIAEL
B21: FLQLETEQV (peptide)
peptide: FLQLETEQV
B22: FVAGYIAGV (peptide)
peptide: FVAGYIAGV
B23: RLNGEGVGQVNISV (peptide)
peptide: RLNGEGVGQVNISV
B24: SMLNNIINL (peptide)
peptide: SMLNNIINL
B25: ILSSACYTV (peptide)
peptide: ILSSACYTV
B26: TLASLGYAVV (peptide)
peptide: TLASLGYAVV
B27: ALYTSGHLL (peptide)
peptide: ALYTSGHLL
B28: HLATVKLLV (peptide)
peptide: HLATVKLLV
B29: SLPESGLLSV (peptide)
peptide: SLPESGLLSV
B30: SLVSYLDKV (peptide)
peptide: SLVSYLDKV
B31: LLTPLNLQI (peptide)
peptide: LLTPLNLQI
B32: AILGFALSEA (peptide)
peptide: AILGFALSEA
B33: IQDAEGAIHEV (peptide)
peptide: IQDAEGAIHEV
B34: SLYGLGGSKRISI (peptide)
peptide: SLYGLGGSKRISI
B35: YLAEPQWAV (peptide)
peptide: YLAEPQWAV
B36: YLQNEVFGL (peptide)
peptide: YLQNEVFGL
B37: GLISSIEAQL (peptide)
peptide: GLISSIEAQL
B38: KLLPGVQYV (peptide)
peptide: KLLPGVQYV
B39: QLLEGELETL (peptide)
peptide: QLLEGELETL
B40: RLSGEGVGPV (peptide)
peptide: RLSGEGVGPV
B41: TLTDEINFL (peptide)
peptide: TLTDEINFL
B42: RLVEVGGDVQL (peptide)
peptide: RLVEVGGDVQL
B43: LLFTGLVSGV (peptide)
peptide: LLFTGLVSGV
B44: ALYDAELSQM (peptide)
peptide: ALYDAELSQM
B45: YLWEAHTNI (peptide)
peptide: YLWEAHTNI
B46: YLYPDLSRL (peptide)
peptide: YLYPDLSRL
B47: AVDPVSGSLYV (peptide)
peptide: AVDPVSGSLYV
B48: ALDTFSVQV (peptide)
peptide: ALDTFSVQV
B49: GLGDDSFPI (peptide)
peptide: GLGDDSFPI
B50: VLNVGVAEV (peptide)
peptide: VLNVGVAEV
B51: RLLPDLDEV (peptide)
peptide: RLLPDLDEV
B52: ALSNVVHKV (peptide)
peptide: ALSNVVHKV
B53: FLHEPFSSV (peptide)
peptide: FLHEPFSSV
B54: GLAGGFGGPGFPV (peptide)
peptide: GLAGGFGGPGFPV
B55: AIYEGVGWNV (peptide)
peptide: AIYEGVGWNV
B56: ALKDSVQRA (peptide)
peptide: ALKDSVQRA
B57: TLWPATPPKA (peptide)
peptide: TLWPATPPKA
B58: AVLGGKLYV (peptide)
peptide: AVLGGKLYV
B59: ILLEDVFQL (peptide)
peptide: ILLEDVFQL
B60: ALVGDVILTV (peptide)
peptide: ALVGDVILTV
B61: YLINEIDRIRA (peptide)
peptide: YLINEIDRIRA
B62: LLPEDDTRDNV (peptide)
peptide: LLPEDDTRDNV
B63: GLWSSIFSL (peptide)
peptide: GLWSSIFSL
B64: VCPPGGIQEV (peptide)
peptide: VCPPGGIQEV
B65: LLIAINPQV (peptide)
peptide: LLIAINPQV
B66: … (peptide)
peptide: TLVDENQSWYL
notes: also called TLVDENQSWYL

Target: T1, HLA-A*02:01 (human)
T1 construct: Peptide-receptive HLA-A*02:01 monomer obtained by UV cleavage of a UV-sensitive ligand; captured on streptavidin plates; also called peptide-receptive MHC molecules; MHC class I
Experiment: UV-ligand exchange, anti-b2m ELISA; grade of peptide exchange yield (>10% = +; >20% = ++; >50 = +++; >75% = ++++)
Text: Candidate peptides for T cell based therapies according to the present invention were further tested for their MHC binding capacity (affinity). The individual peptide-MHC complexes were produced by UV-ligand exchange, where a UV-sensitive peptide is cleaved upon UV-irradiation, and exchanged with the peptide of interest as analyzed. Only peptide candidates that can effectively bind and stabilize the peptide-receptive MHC molecules prevent dissociation of the MHC complexes. To determine the yield of the exchange reaction, an ELISA was performed based on the detection of the light chain (β2m) of stabilized MHC complexes. The assay was performed as generally described in Rodenko et al. (Rodenko et al., 2006).
96 well MAXISorp plates (NUNC) were coated over night with 2 ug/ml streptavidin in PBS at room temperature, washed 4× and blocked for 1 h at 37° C. in 2% BSA containing blocking buffer. Refolded HLA-A*02:01/MLA-001 monomers served as standards, covering the range of 15-500 ng/ml. Peptide-MHC monomers of the UV-exchange reaction were diluted 100-fold in blocking buffer. Samples were incubated for 1 h at 37° C., washed four times, incubated with 2 ug/ml HRP conjugated anti-β2m for 1 h at 37° C., washed again and detected with TMB solution that is stopped with […]. Absorption was measured at 450 nm. Candidate peptides that show a high exchange yield (preferably higher than 50%, most preferred higher than 75%) are generally preferred for a generation and production of antibodies or fragments thereof, and/or T cell receptors or fragments thereof, as they show sufficient avidity to the MHC molecules and prevent dissociation of the MHC complexes.

Row | Binder | peptide exchange yield [%]
1 | B1 | > 75
2 | B2 | 50 to 75
3 | B3 | > 75
4 | B4 | 50 to 75
5 | B5 | > 75
6 | B6 | 50 to 75
7 | B7 | > 75
8 | B8 | > 75
9 | B9 | 50 to 75
10 | B10 | > 75
11 | B11 | 20 to 50
12 | B12 | 50 to 75
13 | B13 | > 75
14 | B14 | > 75
15 | B15 | > 75
16 | B16 | 50 to 75
17 | B17 | 50 to 75
18 | B18 | > 75
19 | B19 | 50 to 75
20 | B20 | > 75
21 | B21 | > 75
22 | B22 | > 75

Row | Binder | peptide exchange yield [%]
23 | B23 | 20 to 50
24 | B24 | 50 to 75
25 | B25 | > 75
26 | B26 | 50 to 75
27 | B27 | > 75
28 | B28 | > 75
29 | B29 | 50 to 75
30 | B30 | > 75
31 | B31 | 50 to 75
32 | B32 | > 75
33 | B33 | > 75
34 | B34 | 50 to 75
35 | B35 | > 75
36 | B36 | 50 to 75
37 | B37 | > 75
38 | B38 | > 75
39 | B39 | 50 to 75
40 | B40 | 50 to 75
41 | B41 | > 75
42 | B42 | > 75
43 | B43 | 50 to 75
44 | B44 | 50 to 75

Row | Binder | peptide exchange yield [%]
45 | B45 | > 75
46 | B46 | > 75
47 | B47 | > 75
48 | B48 | > 75
49 | B49 | > 75
50 | B50 | 50 to 75
51 | B51 | > 75
52 | B52 | > 75
53 | B53 | > 75
54 | B54 | > 75
55 | B55 | > 75
56 | B56 | 50 to 75
57 | B57 | 50 to 75
58 | B58 | > 75
59 | B59 | > 75
60 | B60 | > 75
61 | B61 | > 75
62 | B62 | 50 to 75
63 | B63 | > 75
64 | B64 | 50 to 75
65 | B65 | > 75
66 | B66 | 50 to 75
